Numbered stars: 1 amine (or outer) side, 2 acyl side, 3 side chain; on linkers, the order of the positions; unused ones are H or OH. Square brackets hold non-standard residues; d marks the D form. Side chains are listed from the residue outwards. Ends that are not written are not given here. * marks the point of attachment. C18 diacid = O=C(O)CCCCCCCCCCCCCCCCC(=O)*; αMePhe(2-F) = C[C@](N)(Cc1ccccc1F)C(=O)O; γGlu = O=C(O)[C@H](CCC(=O)[*:2])N[*:1]; αMeL = CC(C)C[C@](C)(N)C(=O)O; AEEA = NCCOCCOCC(=O)O; Aib = CC(C)(N)C(=O)O
Each substance was assayed against T1, human gastric inhibitory peptide receptor (hGIPR) (Homo sapiens, UniProt P48546) (assay: cAMP pharmacological functional assay in presence of 0.1% casein, hGIPR). Conditions: ratio of hGIPR to hGLP1R cAMP EC50 ratios.
T1 construct: expressed in transfected cells; host or cells: HEK293
T1 sequence (P48546 22-466): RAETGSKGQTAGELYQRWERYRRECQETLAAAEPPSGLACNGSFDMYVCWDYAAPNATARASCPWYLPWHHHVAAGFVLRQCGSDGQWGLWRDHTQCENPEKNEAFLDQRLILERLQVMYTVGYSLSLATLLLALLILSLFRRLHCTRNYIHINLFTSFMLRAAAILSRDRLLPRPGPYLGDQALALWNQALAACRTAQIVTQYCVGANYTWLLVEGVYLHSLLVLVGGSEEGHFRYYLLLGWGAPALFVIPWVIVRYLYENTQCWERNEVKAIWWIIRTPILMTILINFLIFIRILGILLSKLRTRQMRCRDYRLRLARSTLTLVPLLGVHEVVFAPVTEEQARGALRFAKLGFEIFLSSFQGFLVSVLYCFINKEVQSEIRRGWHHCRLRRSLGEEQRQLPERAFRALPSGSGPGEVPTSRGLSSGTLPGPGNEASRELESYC
Format: cell-based
Protocol: Each receptor over-expressing cell line (20 μl) is treated with the test peptide in DMEM (Gibco Cat #31053) supplemented with 0.1% Casein (Sigma Cat #C4765), 250 μM IBMX, 1× GlutaMAX™ (Gibco Cat #35050), and 20 mM HEPES (HyClone Cat #SH30237.01) in a 20 μl assay volume. […] EC50 is the concentration of compound causing half-maximal simulation in a dose response curve. A relative EC50 value is derived by non-linear regression analysis using the percent maximal response vs. the concentration of peptide added, fitted to a four-parameter logistic equation.
Intracellular cAMP levels are determined by extrapolation using a standard curve. Dose response curves of compounds are plotted as the percentage of stimulation normalized to minimum (buffer only) and maximum (maximum concentration of each control ligand) values and analyzed using a four parameter non-linear regression fit with a variable slope (Genedata Screener 13). EC50 is the concentration of compound causing half-maximal simulation in a dose response curve.
EC50 is the concentration of compound causing half-maximal simulation in a dose response curve.

Row | Substance | [hGIPR/hGLP1R] EC50 Ratio
1 | Y-Aib-EGT-αMeF(2F)-TSD-4Pal-SI-αMeL-LDKK((2-[2-(2-Amino-ethoxy)-ethoxy]-acetyl)-(γGlu)-(2-[2-(2-Amino-ethoxy)-ethoxy]-acetyl)-CO—(CH2)18—CO2H)AQ-Aib-EFI-(D-Glu)-YLIEGGPSSGAPPPS-NH2 (YXEGTXTSDXSIXLDKKAQXEFIXYLIEGGPSSGAPPPS; Aib, αMeF(2F), 4Pal, αMeL, D-Glu; lipidated K; amide; (2)..(2) Xaa at position 2 is Aib; (6)..(6) Xaa at position 6 is alpha-methyl-Phe(2F); (10)..(10) Xaa at position 10 is 4Pal; (13)..(13) Xaa at position 13 is alpha-methyl-Leu; MOD_RES (17)..(17) Lys at position 17 is chemically modified by conjugation of the epsilon-amino group of the Lys side chain with (2-[2-(2-Amino-ethoxy)-ethoxy]-acetyl)-(gamma-Glu)-(2-[2-(2-Amino- ethoxy)-ethoxy]-acetyl)-CO) [Peptide 202] | 6.73
2 | Y-Aib-EGT-αMeF(2F)-TSD-cTA-SI-αMeL-LDEK((2-[2-(2-Amino-ethoxy)-ethoxy]-acetyl)2-(γGlu)-CO—(CH2)18—CO2H)AQ-Aib-EFIEYLIEGGPSSGAPPPS-NH2 (YXEGTXTSDXSIXLDEKAQXEFIEYLIEGGPSSGAPPPS; Aib, cTA, αMeF(2F), αMeL; acylated lysine C20 diacid; amide; (2)..(2) Xaa at position 2 is Aib; (6)..(6) Xaa at position 6 is alpha-methyl-Phe(2F); (10)..(10) Xaa at position 10 is cTA; (13)..(13) Xaa at position 13 is alpha-methyl-Leu; MOD_RES (17)..(17) Lys at position 17 is chemically modified by conjugation of the epsilon-amino group of the Lys side chain with (2-[2-(2-amino-ethoxy)-ethoxy]-acetyl)2-(gamma-Glu)-CO-(CH2)18- CO2H; (20)..(20) Xaa at positi) [Peptide 155] | 5.97
3 | Y-Aib-EGT-αMeF(2F)-TSDASI-αMeL-LD-Orn-K((2-[2-(2-Amino-ethoxy)-ethoxy]-acetyl)2-(γGlu)-CO—(CH2)16—CO2H)AQ-Aib-AFI-(D-Glu)-αMeY-LIEGGPSSGAPPPS-NH2 (YXEGTXTSDASIXLDXKAQXAFIXXLIEGGPSSGAPPPS; Aib, Orn, αMe residues, lipidated Lys, D-Glu, amide; (2)..(2) Xaa at position 2 is Aib; (6)..(6) Xaa at position 6 is alpha-methyl-Phe(2F); (13)..(13) Xaa at position 13 is alpha-methyl-Leu; (16)..(16) Xaa at position 16 is Orn; MOD_RES (17)..(17) Lys at position 17 is chemically modified by conjugation of the epsilon-amino group of the Lys side chain with (2-[2-(2-amino-ethoxy)-ethoxy]-acetyl)2-(gamma-Glu)-CO-(CH2)16- CO2H; (20)..(20) Xaa at positi) [Peptide 246] | 2.48
4 | Y-Aib-EGT-αMeF(2F)-TSDHSI-αMeL-LD-Dab-K((2-[2-(2-Amino-ethoxy)-ethoxy]-acetyl)2-(γGlu)-CO—(CH2)18—CO2H)AQ-Aib-TFI-(D-Glu)-YLIEGGPSSGAPPPS-NH2 (YXEGTXTSDHSIXLDXKAQXTFIXYLIEGGPSSGAPPPS; Aib, αMeF(2F), αMeL, Dab, D-Glu; lipidated K; amide; (2)..(2) Xaa at position 2 is Aib; (6)..(6) Xaa at position 6 is alpha-methyl-Phe(2F); (13)..(13) Xaa at position 13 is alpha-methyl-Leu; (16)..(16) Xaa at position 16 is Dab; MOD_RES (17)..(17) Lys at position 17 is chemically modified by conjugation of the epsilon-amino group of the Lys side chain with (2-[2-(2-amino-ethoxy)-ethoxy]-acetyl)2-(gamma-Glu)-CO-(CH2)18- CO2H; (20)..(20) Xaa at positi) [Peptide 172] | 2.63
5 | Y-Aib-EGT-αMeF(2F)-TSDHSI-αMeL-LD-Dap-K((2-[2-(2-Amino-ethoxy)-ethoxy]-acetyl)2-(γGlu)-CO—(CH2)18—CO2H)AQ-Aib-TFI-(D-Glu)-YLIEGGPSSGAPPPS-NH2 (YXEGTXTSDHSIXLDXKAQXTFIXYLIEGGPSSGAPPPS; Aib, αMeF(2F), αMeL, Dap, D-Glu; lipidated K; amide; (2)..(2) Xaa at position 2 is Aib; (6)..(6) Xaa at position 6 is alpha-methyl-Phe(2F); (13)..(13) Xaa at position 13 is alpha-methyl-Leu; (16)..(16) Xaa at position 16 is Dap; MOD_RES (17)..(17) Lys at position 17 is chemically modified by conjugation of the epsilon-amino group of the Lys side chain with (2-[2-(2-amino-ethoxy)-ethoxy]-acetyl)2-(gamma-Glu)-CO-(CH2)18- CO2H; (20)..(20) Xaa at positi) [Peptide 173] | 4.80
6 | Y-Aib-EGT-αMeF(2F)-TSDHSI-αMeL-LD-Orn-K((2-[2-(2-Amino-ethoxy)-ethoxy]-acetyl)2-(γGlu)-CO—(CH2)18—CO2H)AQ-Aib-TFI-(D-Glu)-YLIEGGPSSGAPPPS-NH2 (YXEGTXTSDHSIXLDXKAQXTFIXYLIEGGPSSGAPPPS; Aib, αMeF(2F), αMeL, Orn, D-Glu; lipidated K; amide; (2)..(2) Xaa at position 2 is Aib; (6)..(6) Xaa at position 6 is alpha-methyl-Phe(2F); (13)..(13) Xaa at position 13 is alpha-methyl-Leu; (16)..(16) Xaa at position 16 is Orn; MOD_RES (17)..(17) Lys at position 17 is chemically modified by conjugation of the epsilon-amino group of the Lys side chain with (2-[2-(2-amino-ethoxy)-ethoxy]-acetyl)2-(gamma-Glu)-CO-(CH2)18- CO2H; (20)..(20) Xaa at positi) [Peptide 171] | 7.73
7 | Y-Aib-EGT-αMeF(2F)-TSDHSI-αMeL-LDEK((2-[2-(2-Amino-ethoxy)-ethoxy]-acetyl)2-(γGlu)-CO—(CH2)14—CO2H)AQ-Aib-HFI-(D-Glu)-YLIEGGPSSGAPPPS-NH2 (YXEGTXTSDHSIXLDEKAQXHFIXYLIEGGPSSGAPPPS; Aib, αMeF(2F), αMeL, D-Glu; C16 diacid lipidated K; amide; (2)..(2) Xaa at position 2 is Aib; (6)..(6) Xaa at position 6 is alpha-methyl-Phe(2F); (13)..(13) Xaa at position 13 is alpha-methyl-Leu; MOD_RES (17)..(17) Lys at position 17 is chemically modified by conjugation of the epsilon-amino group of the Lys side chain with (2-[2-(2-amino-ethoxy)-ethoxy]-acetyl)2-(gamma-Glu)-CO-(CH2)14- CO2H; (20)..(20) Xaa at position 20 is Aib; (24)..(24) Xaa at positi) [Peptide 178] | 9.77
8 | Y-Aib-EGT-αMeF(2F)-TSDHSI-αMeL-LDEK((2-[2-(2-Amino-ethoxy)-ethoxy]-acetyl)2-(γGlu)-CO—(CH2)16—CO2H)AQ-Aib-HFI-(D-Glu)-YLIEGG-NH2 (Y[Aib]EGT[αMePhe(2-F)]TSDHSI[αMeL]LDEK([AEEA-AEEA-γGlu-C18 diacid])AQ[Aib]HFI[dE]YLIEGG-NH2; N-terminus assumed; SMILES CC[C@H](C)[C@H](NC(=O)[C@H](CC(C)C)NC(=O)[C@H](Cc1ccc(O)cc1)NC(=O)[C@@H](CCC(=O)O)NC(=O)[C@@H](NC(=O)[C@H](Cc1ccccc1)NC(=O)[C@H](Cc1c[nH]cn1)NC(=O)C(C)(C)NC(=O)[C@H](CCC(N)=O)NC(=O)[C@H](C)NC(=O)[C@H](CCCCNC(=O)COCCOCCNC(=O)COCCOCCNC(=O)CC[C@H](NC(=O)CCCCCCCCCCCCCCCCC(=O)O)C(=O)O)NC(=O)[C@H](CCC(=O)O)NC(=O)[C@H](CC(=O)O)NC(=O)[C@H](CC(C)C)NC(=O)[C@](C)(CC(C)C)NC(=O)[C@@H](NC(=O)[C@H](CO)NC(=O)[C@H](Cc1c[nH]cn1)NC(=O)[C@H](CC(=O)O)NC(=O)[C@H](CO)NC(=O)[C@@H](NC(=O)[C@](C)(Cc1ccccc1F)NC(=O)[C@@H](NC(=O)CNC(=O)[C@H](CCC(=O)O)NC(=O)C(C)(C)NC(=O)[C@@H](N)Cc1ccc(O)cc1)[C@@H](C)O)[C@@H](C)O)[C@@H](C)CC)[C@@H](C)CC)C(=O)N[C@@H](CCC(=O)O)C(=O)NCC(=O)NCC(N)=O) [Peptide 180] | 6.27

— patent US12295987B2, “Method of using a GIP/GLP1 co-agonist for diabetes” (Eli Lilly and Company, priority 2018, dated 2025)
